Measurements: the DeepSol protein solubility set

Test: soluble on expression in E. coli; label from the status in PepcDB or PDB records

Question: With “MSLGSVNRVYLARLSRMSVLGPLGESFGRVRDVVISISIVRQQPRVLGLVVDLATRRKIFIPILRVAAIEPHAVTLSTGNVSLHRFEQRPGEALALGQVLDTLVKVNDPALPELAGVDVVVTDLGVEQTRSRDWMVTRVAVRTQRRLRRRCPVHVVDWHNVAGLTPSALAMPGQDVAQLLDQFEGWKAVDVADAIRGLPPKRRHEVFKALHDKRLADVLQELPELDQAEVLSQLGTERAADVLEEMDPDDAADLLAVLNPTEAELLLTRMDPGDSGQVRRLLTHSPDTAGGLMTSDPVVLTPDTSIAEALARVRDPDLTPALASMVFVARPPTATPTGHYLGCVHLQRLLRDPPAELVGGVVDTDLLTLTPETPLAAVTRYFAAYNLVCGPVVDDENHLLGAVTVDDLLDHLLPHDWRVDMPELDPSGAPDRPGGPREGHHHHHH” as the sequence, how does the “soluble on expression in E. coli” value read?
Answer: soluble

Question: For “MSEPILKVENLKKYFPVRRGFLSALRGEPQKFVKAVDGVSFEIYKQQVFALVGESGCGKTTTGKLIVKLLEPTDGKIYLEGQDVTELRTKEEIKAYRRKVQMIFQDPFSSMNPRFRIYDVLEEPLLIHGIGETRAEREELIYKALEMVKITPPEEYVGRFPHMLSGGQRQRVAIARALILNPTFVVADEPVSMLDVSIRAEILELMKELKEKMGVTYLYITHDLSTARYFADWIAVMYLGRIVEMGPAKEIIDNPLHPYTRALLAAVPEPIPERKDVIKELPIKGEVPSAVNIPSGCRFHPRCIYFKKGLCDVKQPQLIEYSHNHWVECHRVGEI”, which “soluble on expression in E. coli” value is on record?
Answer: soluble

Question: Which “soluble on expression in E. coli” value does the source give for “AQSVPWGISRVQAPAAHNRGLTGSGVKVAVLDTGISTHPDLNIRGGASFVPGEPSTQDGNGHGTHVAGTIAALNNSIGVLGVAPNAELYAVKVLGASGSGSVSSIAQGLEWAGNNGMHVANLSLGSPSPSATLEQAVNSATSRGVLVVAASGNSGAGSISYPARYANAMAVGATDQNNNRASFSQYGAGLDIVAPGVNVQSTYPGSTYASLNGTSMATPHVAGAAALVKQKNPSWSNVQIRNHLKNTATSLGSTNLYGSGLVNAEAATR” here?
Answer: soluble

Question: With “MGSSHHHHHHSSGLVPRGSHMRTVTGAILAMNLEVKDFVHRDVEEADRRLREIGARKILLQLPDGLKPYAFDYFTYLSQRYDVILSSSPVYGACDIGPSYLYDRVDAIVQVGHSIMRNVKYPRPVIFIEHYRTVDVEDINTEALKNYRRIGLIYSIQYRPVADRVKRILESKGFEVIIGRSDRRMTYDGQVLGCNFSSVHSVEAEVEAFVIVSTGSFHALGSQISTERPVFLLDLNEMSLRSMEKEADTFIRKRYAQIYRAMDAKRICFLVDTRIGQRREKLARMLMDRARDLGKEAVLAYTDNISDQDIQNMGCDLAVYTGCPRVPIDDQDRFTVPVLTPAEFSMAFFKSSKRYVLDEIVSVDEFTDQ” as the sequence, how does the “soluble on expression in E. coli” value read?
Answer: soluble

Question: Which “soluble on expression in E. coli” value does the source give for “NAIKESARLPELSLWEKIKAYFFTTHHAEALECIFNLYHHQELNLTPVQVRGAYIKLRALASQGCKEQFIIESQEHADKLIIKDDNGENILSIEVECHPEAFGLAKEINKS” here?
Answer: soluble

Question: Which “soluble on expression in E. coli” value does the source give for “MGSSHHHHHHHSSGRENLYFQGHMEGVRWAFSCGTWLPSRAEWLLAVRSIQPEEKERIGQFVFARDAKAAMAGRLMIRKLVAEKLNIPWNHIRLQRTAKGKPVLAKDSSNPYPNFNFNISHQGDYAVLAAEPELQVGIDIMKTSFPGRGSIPEFFHIMKRKFTNKEWETIRSFKDEWTQLDMFYRNWALKESFIKAIGVGLGFELQRLEFDLSPLNLDIGQVYKETRLFLDGEEEKEWAFEESKIDEHHFVAVALRKPDGSRHQDVPSQDDSKPTQRQFTILNFNDLMSSAVPMTPEDPSFWDCFCFTEEIPIRNGTKSLESG” here?
Answer: soluble

Question: Which “soluble on expression in E. coli” value does the source give for “MPRYYEDKPEGGACAGVKEDLGACLLQSACVLQEGKSPRQCLKEGNCRALQYSFFECKRSMLDARSRFRGRKGY” here?
Answer: not soluble

Question: With “MGSDKIHHHHHHMTTLPYFQPAASPASAGEGSASLSPVIALKDLVARLDREQRKAQELLASLGFALRSFTNLGQFLELIPLIASRVTDTEGSLLLTFRPDGRFWQAQLHCTDPRLAETLNRIPASLPVGTAPSGSPTEAIAEIDRQVQRCLGRNAQLFATAVLVRNQARGRLYVFSLDGQYSWNESRQKLVRLVADQTAVAIENDALTTELRQKERLDRELEIGAEIQLQLLPSQCPAIEGLEIAAACRTASRVGGDYYDFIPTRTHSDEQGRLQPDAGSPWAIAIGDIMGKGVPAGLIMTMLRGMLRAEVLNRHRPSRVLAHLNQVIYADLEHSNRFATLFYSEYDPSSRLLTFSNAAHNPPLLWQQATGTLKRLDTFGMMIGLEADNAYAEQHVQLQPGDVVLYYTDGLTDAADPRGNRFDEENVAIAFREACRRRLSAEALLADLFNRVQRFIGPDRHNEDDMTLVVLRAV” as the sequence, how does the “soluble on expression in E. coli” value read?
Answer: not soluble

Question: With “MGSDKIHHHHHHMMQPVINAPEIATAREQQLFNGKNFHVFIYNKTESISGLHQHDYYEFTLVLTGRYFQEINGKRVLLERGDFVFIPLGSHHQSFYEFGATRILNVGISKRFFEQHYLPLLPYCFVASQVYRTNNAFLTYVETVISSLNFRETGLEEFVEMVTFYVINRLRHYREEQVIDDVPQWLKSTVEKMHDKEQFSESALENMVALSAKSQEYLTRATQRYYGKTPMQIINEIRINFAKKQLEMTNYSVTDIAFEAGYSSPSLFIKTFKKLTSFTPKSYRKKLTEFNQ” as the sequence, how does the “soluble on expression in E. coli” value read?
Answer: not soluble

Question: With “MGSDKIHHHHHHMSGMIGKIQDKKIFSITIIPSSWCNFRCVYCYENDHYKIKNMITTSEMTKRIKLFLENNIKTGFFRKVHIRWYGGEPLLDFKTIIDIMDFTNSIGKTYKTDIIGEIITNGYLLDIVKFKILLEKGVKIFQVTIDGYKDAHDKLRPLLNGKPTFDKIFENLIQTRNVTDNFFMFIRSNVMPDNLDSIKKFLDLASNYFSRDRRYYFTFFPVTRSGGDNDKNLKVIEPKKRMEIIQELYMYATQLGLNIPDKDTLLQIDGVPAMDDLCQALYPFSIIIRNDGKLFKCPLTVMIDDESVGHIEEDGSIVLDESKINRWAKYILSPLSRGCPRLHELGEVVGVEAE” as the sequence, how does the “soluble on expression in E. coli” value read?
Answer: not soluble

Question: With “MGSDKIHHHHHHMHNEIVTGNVLPFNIFEKADSKLLAWIRDVSVVREITTSCRLIEEGSTPDGLFVVESGAITVCTKQADGGSLSLASLKVGNLVGEMSWLEERPAVASIDAGPGSRLLQIPREALESINQSEAFICHLLYRLIAEKLALQVQGQNIWVHRIAGTDQEPLRKVLVLFAELEEKDVAWIARSGKFKRLVAGDVLLQEGDNVPGLYLLLAGEARISITENGSWQSVGSSRRGELLGELTMLNPQAAGATANVDTVTGLELLVLDKEELSMTLNADPRLAKRFYKGIARMLSQRSRDQLLSRGFAEASRIAEELIDNEQLGLDQLSAISSAGLRFDWLCRQFQDKEG” as the sequence, how does the “soluble on expression in E. coli” value read?
Answer: not soluble

Question: With “MTDTRVLAVANQKGGVAKTTTVASLGAAMVEKGRRVLLVDLDPQGCLTFSLGQDPDKLPVSVHEVLLGEVEPNAVLVTTMEGMTLLPANIDLAGAEAMLLMRAGREYALKRALAKFSDRFDVVIIDCPPSLGVLTLNGLTAADKAIVPLQCEMLAHRGVGQFLRTVADVQQITNPNLRLLGALPTLYDSRTTHTRDVLLDVADRYDLQVLAPPIPRTVRFAEASASGSSVMAGRKNKGAVAYRELAQALLKHWKTGRPLPTFTVDL” as the sequence, how does the “soluble on expression in E. coli” value read?
Answer: soluble

Question: Which “soluble on expression in E. coli” value does the source give for “MWRLYRKTPKQLRNSVESCFKSVNSRQFSVSSFSAVAKDDKSVLKQQEVLHLLAKDQRFEERFFNQVQQTIRYFASKPNDLKKFFRKEASTDNKESSSSSDKKDSKGNKGEDNNPFNQFPGGWQQIAVSVGILLALYAFMDYQSYREISWKEFYSDFLEAGLVERLEVVDKRWVRIVSSSGKYAGQTCYFNIGSVDSFERSLGAAQHHLQYDADRQIPVLYKSEFNFKREIPNLISVAFPLLFGYYIYRMLKGGGAAGGAGRAGGGGLGGMFGGFGQSTARVINREDIKVKFADVAGCEEAKIEIMEFVNFLKNPQQYKDLGAKIPKGAILTGPPGTGKTLLAKATAGEANVPFITVSGSEFLEMFVGVGPARVRDMFSMARKNSPCILFIDEIDAVGRKRGGKGGMGGHSEQENTLNQLLVEMDGFTTDESSVIVIAATNRVDILDSALLRPGRFDRQIYVPVPDIKGRASIFRVHLGPLRTSLDKTVLSRKLAAHTPGFSGADISNVCNEAALIAARDANHEISNKHFEQAIERVVAGMEKKTQVLQKEEKKTVAYHEAGHAIAGWFLQHADPLLKVSIIPRGKGLGYAQYLPKEQYLYSKDQLLDRMCMTLGGRVAEEIFFGRITTGAQDDLQKVTQMAYSQVVKFGMSEKVGPLSFETPAPGEMAFDKPYSEATAQLIDQEVRDLVMNALRRTRDLLLEKRSDIERVALRLLEKEILNREDMIELVGKRPFVEKNTYEEMVSGTGGLDENVELPKGLENWNKESEKKKKDEEKKKNDE” here?
Answer: not soluble

Question: For “MEELQDDYEDMMEENLEQEEYEDPDIPESQMEEPAAHDTEATATDYHTTSHPGTHKVYVELQELVMDEKNQELRWMEAARWVQLEENLGENGAWGRPHLSHLTFWSLLELRRVFTKGTVLLDLQETSLAGVANQLLDRFIFEDQIRPQDREELLRALLLKHSHAGELEALGGVKPAVLTRSGDPSQPLLPQHSSLETQLFCEQGDGGTEGHSPSGILEKIPPDSEATLVLVGRADFLEQPVLGFVRLQEAAELEAVELPVPIRFLFVLLGPEAPHIDYTQLGRAAATLMSERVFRIDAYMAQSRGELLHSLEGFLDCSLVLPPTDAPSEQALLSLVPVQRELLRRRYQSSPAKPDSSFYKGLDLNGGPDDPLQQTGQLF”, which “soluble on expression in E. coli” value is on record?
Answer: soluble

Question: Which “soluble on expression in E. coli” value does the source give for “MGRGRAKAKQTKVARELKYSSPQTDFQRLQRELSGTGTDRLDGDGPSDDDSWNDEDDWRR” here?
Answer: not soluble

Question: With “MVTFLGNPVSFTGKQLQVGDKALDFSLTTTDLSKKSLADFDGKKKVLSVVPSIDTGICSTQTRRFNEELAGLDNTVVLTVSMDLPFAQKRWCGAEGLDNAIMLSDYFDHSFGRDYALLINEWHLLARAVFVLDTDNTIRYVEYVDNINSEPNFEAAIAAAKAL” as the sequence, how does the “soluble on expression in E. coli” value read?
Answer: soluble

Question: Which “soluble on expression in E. coli” value does the source give for “MADVFEFELEGHESQASPQRHAYHYDNCTEIMEDDHMYSNVADGQISAPPPSSSYMEDPMMESIQLCASAINPPNVRVGPEDFQLLKVLGKGGYGKVFQVRKTTGSDNGQIFAMKVLQKATIVRNQKDTAHTKAERNILEAVKSPFICDLLYAFQTGGKLYLILEYLSGGELFMHLEREGMFMENVAKFYLSEIVVSLEHLHQQGIIYRDLKPENILLDAYGHVKLTDFGLCKEEIEGDQKTHTFCGTIEYMAPEILMRCGHGKAVDWWSLGALMFDMLTGGPPFTAENRRKTIDKILKGRLTLPAYLSNEARDLIKKLLKRHVDTRLGAGLSDAEEIKSHAFFKTTDWNLVYARQLEAPFKPNIENDEDTSLFDARFTKMTPVDSPCETNFSLNGDNPFVGFTYVAPSVLEMMNKGGHGGISVAHLASSMSRAGAAKSPRKPGDPETASILHGGHSNLFGHGPNSEAPQAFGYGIGSQMTTTTAGGAGIQQPYQSFSGGYPEDDAMDTSTPRASESRETTTGNGSTTTTRPSNVGSSASTPIPLPKRVIKLPHTHTSTQNAQYSFMLLLLNVSLFFHFF” here?
Answer: not soluble

Question: Which “soluble on expression in E. coli” value does the source give for “PIELLPETPSQTAGPYVHIGLALEAAGNPTRDQEIWNRLAKPDAPGEHILLLGQVYDGNGHLVRDSFLEVWQADANGEYQDAYNLENAFNSFGRTATTFDAGEWTLHTVKPGVVNNAAGVPMAPHINISLFARGINIHLHTRLYFDDEAQANAKCPVLNLIEQPQRRETLIAKRCEVDGKTAYRFDIRIQGEGETVFFDF” here?
Answer: soluble

Question: With “AHHHHHHGSKTFLTEQQIKVLMLRAKGYKQSEIAKILGTSRANVSILEKRAMEKIEKARNTLLLWEQINSKVIVEIKAGEDIFSIPEKFFKKADKVGVKVPYSTAEIITFLVEHAPVEDRLAKRDFVLFLDSKNKLRIGDCLVIEEIKED” as the sequence, how does the “soluble on expression in E. coli” value read?
Answer: soluble

Question: Which “soluble on expression in E. coli” value does the source give for “GPLGSMDSPPEGYRRNVGICLMNNDKKIFAASRLDIPDAWQMPQGGIDEGEDPRNAAIRELREETGVTSAEVIAEVPYWLTYDFPPKVREKLNIQWGSDWKGQAQKWFLFKFTGQDQEINLLGDGSEKPEFGEWSWVTPEQLIDLTVEFKKPVYKEVLSVFAPHL” here?
Answer: soluble
